US20040203101A1 (Human Genome Sciences, published 2004)

Columns and labels:
[1] = target: T1, human high molecular weight uPA (human, UniProt P00749 21-431); experiment: kinetic constants for the interaction of BAIT with proteinases; method not described
T1 construct: also called uPA-H

human two-chain tPA [2] = target: T2, human two-chain tPA (human, UniProt P00750 36-310; P00750 311-562); experiment: as above
T2 construct: Two-chain (cleaved) form; also called tctPA

[3] = target: human low molecular weight uPA (human, UniProt P00749 156-431); experiment: as above
thrombin = thrombin (Homo sapiens (Human), UniProt P00734 328-363; P00734 364-622); experiment: as above
human single-chain tPA = target: T3, human single-chain tPA (human, UniProt P00750 36-562); experiment: as above
T3 construct: also called sctPA
T3 sequence (P00750 36-562 limits assumed): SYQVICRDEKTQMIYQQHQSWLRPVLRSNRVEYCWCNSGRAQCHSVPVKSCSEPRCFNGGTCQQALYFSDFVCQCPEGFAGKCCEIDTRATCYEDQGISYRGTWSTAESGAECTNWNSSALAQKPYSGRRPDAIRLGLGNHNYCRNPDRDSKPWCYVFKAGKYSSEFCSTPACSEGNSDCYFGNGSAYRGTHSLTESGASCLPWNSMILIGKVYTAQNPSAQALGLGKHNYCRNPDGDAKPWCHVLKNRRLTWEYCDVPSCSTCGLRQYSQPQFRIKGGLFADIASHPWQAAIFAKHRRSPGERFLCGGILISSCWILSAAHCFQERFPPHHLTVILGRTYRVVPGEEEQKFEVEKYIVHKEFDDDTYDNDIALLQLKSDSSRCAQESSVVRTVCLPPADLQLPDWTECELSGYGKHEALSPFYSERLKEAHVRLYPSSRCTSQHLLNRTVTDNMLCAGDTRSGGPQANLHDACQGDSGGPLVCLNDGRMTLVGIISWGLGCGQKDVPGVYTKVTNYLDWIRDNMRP

plasmin = plasmin (Homo sapiens (Human), UniProt P00747 97-580; P00747 581-810, Two chains joined by disulfide bonds after cleavage of plasminogen at Arg580-Val581 (precursor count).); experiment: as above
plasmin, sequence (P00747 97-580 limits assumed, form in doubt, chain 1 of 2): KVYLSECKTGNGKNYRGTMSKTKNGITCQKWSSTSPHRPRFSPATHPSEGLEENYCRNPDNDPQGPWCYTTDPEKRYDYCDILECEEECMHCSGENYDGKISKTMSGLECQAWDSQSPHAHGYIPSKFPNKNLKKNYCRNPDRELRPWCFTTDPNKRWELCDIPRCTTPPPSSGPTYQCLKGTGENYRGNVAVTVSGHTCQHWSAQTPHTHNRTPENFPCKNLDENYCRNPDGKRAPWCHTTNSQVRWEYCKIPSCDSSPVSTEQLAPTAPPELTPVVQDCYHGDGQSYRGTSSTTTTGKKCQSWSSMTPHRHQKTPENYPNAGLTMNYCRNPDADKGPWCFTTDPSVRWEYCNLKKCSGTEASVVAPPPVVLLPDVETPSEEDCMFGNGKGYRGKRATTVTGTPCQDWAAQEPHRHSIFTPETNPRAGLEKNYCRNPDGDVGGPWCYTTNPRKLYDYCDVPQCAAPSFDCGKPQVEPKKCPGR
plasmin, sequence (P00747 581-810 limits assumed, form in doubt, chain 2 of 2): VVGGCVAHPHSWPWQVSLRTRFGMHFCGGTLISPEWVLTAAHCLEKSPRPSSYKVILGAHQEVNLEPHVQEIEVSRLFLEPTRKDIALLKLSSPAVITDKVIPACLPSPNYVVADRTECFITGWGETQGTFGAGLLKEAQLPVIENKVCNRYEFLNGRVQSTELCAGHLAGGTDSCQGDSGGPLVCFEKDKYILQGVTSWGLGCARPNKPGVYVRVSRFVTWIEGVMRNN

bovine beta trypsin [4] = target: T4, bovine beta trypsin (bovine, UniProt P00760 24-246); experiment: as above
T4 construct: also called β-trypsin
T4 sequence (P00760 24-246 limits assumed): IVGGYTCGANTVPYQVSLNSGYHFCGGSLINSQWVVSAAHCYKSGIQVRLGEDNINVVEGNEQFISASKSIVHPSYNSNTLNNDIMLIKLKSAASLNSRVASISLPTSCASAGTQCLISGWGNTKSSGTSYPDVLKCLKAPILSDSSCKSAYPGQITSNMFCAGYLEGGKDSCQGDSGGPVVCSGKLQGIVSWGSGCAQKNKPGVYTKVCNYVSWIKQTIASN

human two-chain tPA [5] = target: T2, human two-chain tPA; experiment: comparison of rates of inhibition; reference PN-1 with tPA
human two-chain tPA [6] = target: T2, human two-chain tPA; experiment: comparison of rates of inhibition; reference PAI-1 with tPA
human two-chain tPA [7] = target: T2, human two-chain tPA; experiment: comparison of rates of inhibition from Table I; reference BAIT with uPA
[8] = target: urokinase-type plasminogen activator, uPA (Serono) (UniProt P00749 21-431, limits assumed); experiment: cell-based or functional assay
[9] = target: tissue-type plasminogen activator, tPA (Genentech) (human, UniProt P00750 36-562); experiment: cell-based or functional assay
tissue-type plasminogen activator, tPA (Genentech), sequence (P00750 36-562 limits assumed): as the sequence (P00750 36-562 limits assumed) above

bovine beta trypsin [10] = target: T4, bovine beta trypsin; experiment: cell-based or functional assay

T2 sequence (P00750 36-310 limits assumed, chain 1 of 2): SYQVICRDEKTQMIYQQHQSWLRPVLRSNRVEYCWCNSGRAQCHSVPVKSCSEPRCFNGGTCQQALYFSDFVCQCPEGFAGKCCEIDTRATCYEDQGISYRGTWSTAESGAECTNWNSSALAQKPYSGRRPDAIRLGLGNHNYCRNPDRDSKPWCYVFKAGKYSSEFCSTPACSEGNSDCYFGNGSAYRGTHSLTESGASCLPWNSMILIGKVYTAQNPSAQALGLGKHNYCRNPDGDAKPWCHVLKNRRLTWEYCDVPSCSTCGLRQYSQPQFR
T2 sequence (P00750 311-562 limits assumed, chain 2 of 2): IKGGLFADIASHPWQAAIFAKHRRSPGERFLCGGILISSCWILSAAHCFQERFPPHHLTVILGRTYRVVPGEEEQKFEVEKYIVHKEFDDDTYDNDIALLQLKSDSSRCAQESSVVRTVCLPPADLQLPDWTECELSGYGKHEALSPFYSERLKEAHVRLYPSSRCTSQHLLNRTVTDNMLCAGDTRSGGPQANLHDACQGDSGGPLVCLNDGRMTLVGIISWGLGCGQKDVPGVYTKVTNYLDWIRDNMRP

B1: human BAIT (Brain-Associated Inhibitor of Tissue-Type Plasminogen Activator), mature protein expressed in baculovirus/Sf9 cells and purified (other)
chain: ATFPEEAIADLSVNMYNRLRATGEDENILFSPLSIALAMGMMELGAQGSTQKEIRHSMGYDSLKNGEEFSFLKEFSNMVTAKESQYVMKIANSLFVQNGFHVNEEFLQMMKKYFNAAVNHVDFSQNVAVANYINKWVENNTNNLVKDLVSPRDFDAATYLALINAVYFKGNWKSQFRPENTRTFSFTKDDESEVQIPMMYQQGEFYYGEFSDGSNEAGGIYQVLEIPYEGDEISMMLVLSRQEVPLATLEPLVKAQLVEEWANSVKKQKVEVYLPRFTVEQEIDLKDVLKALGITEIFIKDANLTGLSDNKEIFLSKAIHKSFLEVNEEGSEAAAVSGMIAISRMAVLYPQVIVDHPFFFLIRNRRTGTILFMGRVMHPETMNTSGHDFEEL
modifications: glycosylated (positions not stated)
notes: The preparation has mixed N-termini (also called BAIT protein); neural serpin
[1]
  K: 0.2 µM
  k: 0.005 s⁻¹
  ki: 25000 M⁻¹ s⁻¹
Human two-chain tPA [2]
  K: 0.12 µM
  k: 0.078 s⁻¹
  ki: 620000 M⁻¹ s⁻¹
[3]
  K: 1.4 µM
  k: 0.013 s⁻¹
  ki: 9200 M⁻¹ s⁻¹
thrombin
  K: 0.64 µM
  k: 0.000131 s⁻¹
  ki: 210 M⁻¹ s⁻¹
Human single-chain tPA
  K: 2.1 µM
  k: 0.17 s⁻¹
  ki: 80000 M⁻¹ s⁻¹
plasmin
  K: 0.15 µM
  k: 5.2e-05 s⁻¹
  ki: 360 M⁻¹ s⁻¹
Bovine beta trypsin [4]
  K: 0.16 µM
  k: 0.0096 s⁻¹
  ki: 59000 M⁻¹ s⁻¹
Human two-chain tPA [5]
  fold faster reaction with tPA than PN-1: ~20 fold
Human two-chain tPA [6]
  fold slower reaction with tPA than PAI-1: ~30 fold
Human two-chain tPA [7]
  fold faster rate of inhibition of tPA than of uPA: ~25 fold
[8]
  half-maximal inhibitory concentration (IC50) of proteolytic activity, single step chromogenic assay: 1000 nM
[9]
  half-maximal inhibitory concentration (IC50) of proteolytic activity, single step chromogenic assay: 200 nM
Bovine beta trypsin [10]
  half-maximal inhibitory concentration (IC50) of proteolytic activity, single step chromogenic assay: 700 nM
